Assay [1] addresses human GM-CSF (human) (UniProt P04141). The experiment in a line: cell-based or functional assay.
In assay [2] the target is macaca mulatta (rhesus) GM-CSF (Macaca mulatta (rhesus)). As to the kind of experiment: cell-based or functional assay.
Assay [3] has as its target human GM-CSF (human) (UniProt P04141). As to the kind of experiment: FACS receptor inhibition assay: inhibition of binding of 0.5 µg/ml biotinylated GM-CSF to GM-CSF receptor alpha on CHO-GMRa#11 cells.
For assay [4], the target named is human GM-CSF receptor alpha chain (human) (UniProt P15509). As to the kind of experiment: FACS on CHO-GMRa#11 cells, MAB1006 at 1 µg/ml, R-PE anti-mouse secondary, FL2 channel.
Sequence of human GM-CSF receptor alpha chain (human) (P15509 23-400): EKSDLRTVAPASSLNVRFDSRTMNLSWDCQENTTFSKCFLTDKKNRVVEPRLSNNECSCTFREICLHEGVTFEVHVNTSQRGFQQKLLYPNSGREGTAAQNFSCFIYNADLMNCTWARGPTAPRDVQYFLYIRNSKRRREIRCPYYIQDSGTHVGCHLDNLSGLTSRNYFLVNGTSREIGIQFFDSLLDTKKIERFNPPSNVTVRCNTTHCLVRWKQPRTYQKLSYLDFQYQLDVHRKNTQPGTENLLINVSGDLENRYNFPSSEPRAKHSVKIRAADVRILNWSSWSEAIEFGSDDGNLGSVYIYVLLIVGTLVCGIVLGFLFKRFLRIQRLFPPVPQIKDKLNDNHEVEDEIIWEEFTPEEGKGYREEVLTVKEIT

Results on two substances are retold here after patent publication US20090053213A1.

The term % inhibition denotes the drop in the measured response relative to a control, in per cent. A lower % inhibition goes with a response near the control.

Sequence of human GM-CSF (human) (P04141 18-144): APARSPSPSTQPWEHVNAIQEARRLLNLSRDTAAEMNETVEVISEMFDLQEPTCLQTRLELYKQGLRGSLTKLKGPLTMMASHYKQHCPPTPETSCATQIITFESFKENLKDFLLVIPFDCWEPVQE

For MAB215 (antibody), in the assay with human GM-CSF (human) [1], the IC50 (pM) in TF-1 proliferation assay, human GM-CSF 0.25 ng/ml amounted to 4320 pM; the IC50 (pM) in TF-1 proliferation assay, human GM-CSF (E. coli) is 625 pM; the IC50 (pM) in TF-1 proliferation assay, human GM-CSF (HEK293) was determined as 54 pM; the IC50 x-fold improved compared to BVD2-21C11, TF-1 proliferation assay was 1.5 fold. Further, the IC50 (pM) in TF-1 proliferation assay, macaca GM-CSF (HEK293) in assay [2] is 190 pM. Moreover, the % inhibition at 5 µg/ml antibody with human GM-CSF (human) [3] was determined as 50%.

In turn, murine IgG MAB1006 (antibody) gave a median fluorescence value (MFL value) in assay [4] of 157.
